Measurements: patent US20060257938A1, “Method of screening for drugs that block ligand binding to a lipid binding protein” (priority 2005, published 2006)
Positions count from the first letter of the chain named. “And” between values parts separate entries of the source, which are not always exact repeats. Identical values can stand only once.

B1: 115E1, 72A (protein, listed as Rattus norvegicus)
chain: AFDGTWKVDRNENYEKFMEKMGINVVKRKLGAHDNLKLTITQEGNKFTVKESSNFRNIDVVFELGVDFAYSAADGTELTGTWTMEGNKLVGKFKRVDNGKELIAVREISGNELIETYTYEGVEAKRIFKKE
modifications: PEPTIDE (1)...(131) wild-type rat intestinal fatty acid binding protein
B2: 117A, 72A (protein, listed as Rattus norvegicus)
chain: B1 chain with E115Q, Y117A
modifications: PEPTIDE (1)...(131) wild-type rat intestinal fatty acid binding protein
B3: 115N2, 72A (protein, listed as Rattus norvegicus)
chain: B1 chain with E115N
modifications: PEPTIDE (1)...(131) wild-type rat intestinal fatty acid binding protein
B4: 115I3, 72A (protein, listed as Rattus norvegicus)
chain: B1 chain with E115I
modifications: PEPTIDE (1)...(131) wild-type rat intestinal fatty acid binding protein
B5: 115S1, 72A (protein, listed as Rattus norvegicus)
chain: B1 chain with E115S
modifications: PEPTIDE (1)...(131) wild-type rat intestinal fatty acid binding protein
B6: 115V2, 72A (protein, listed as Rattus norvegicus)
chain: B1 chain with E115V
modifications: PEPTIDE (1)...(131) wild-type rat intestinal fatty acid binding protein
B7: 115P1, 72A (protein, listed as Rattus norvegicus)
chain: B1 chain with E115P
modifications: PEPTIDE (1)...(131) wild-type rat intestinal fatty acid binding protein
B8: 115Y1, 72A (protein, listed as Rattus norvegicus)
chain: B1 chain with E115Y
modifications: PEPTIDE (1)...(131) wild-type rat intestinal fatty acid binding protein
B9: 21Y, 72A (protein, listed as Rattus norvegicus)
chain: B1 chain with M21Y, E115Q
modifications: PEPTIDE (1)...(131) wild-type rat intestinal fatty acid binding protein
B10: 102A, 72A (protein, listed as Rattus norvegicus)
chain: B1 chain with L102A, E115Q
modifications: PEPTIDE (1)...(131) wild-type rat intestinal fatty acid binding protein
B11: 117D, 72A (protein, listed as Rattus norvegicus)
chain: B1 chain with E115Q, Y117D
modifications: PEPTIDE (1)...(131) wild-type rat intestinal fatty acid binding protein
B12: 115F1, 72A (protein, listed as Rattus norvegicus)
chain: B1 chain with E115F
modifications: PEPTIDE (1)...(131) wild-type rat intestinal fatty acid binding protein
B13: 38Y, 72A (protein, listed as Rattus norvegicus)
chain: B1 chain with L38Y, E115Q
modifications: PEPTIDE (1)...(131) wild-type rat intestinal fatty acid binding protein
B14: 115L3, 72A (protein, listed as Rattus norvegicus)
chain: B1 chain with E115L
modifications: PEPTIDE (1)...(131) wild-type rat intestinal fatty acid binding protein
B15: 102C, 72A (protein, listed as Rattus norvegicus)
chain: B1 chain with L102C, E115Q
modifications: PEPTIDE (1)...(131) wild-type rat intestinal fatty acid binding protein
B16: 115K3, 72A (protein, listed as Rattus norvegicus)
chain: B1 chain with E115K
modifications: PEPTIDE (1)...(131) wild-type rat intestinal fatty acid binding protein
B17: 115T3, 72A (protein, listed as Rattus norvegicus)
chain: B1 chain with E115T
modifications: PEPTIDE (1)...(131) wild-type rat intestinal fatty acid binding protein
B18: 115R1, 72A (protein, listed as Rattus norvegicus)
chain: B1 chain with E115R
modifications: PEPTIDE (1)...(131) wild-type rat intestinal fatty acid binding protein
B19: 115H1, 72A (protein, listed as Rattus norvegicus)
chain: B1 chain with E115H
modifications: PEPTIDE (1)...(131) wild-type rat intestinal fatty acid binding protein
B20: 117C, 72A (protein, listed as Rattus norvegicus)
chain: B1 chain with E115Q, Y117C
modifications: PEPTIDE (1)...(131) wild-type rat intestinal fatty acid binding protein

Test: Probe fluorescence ratio response to linoleic acid relative to ADIFAB2
Assay type: binding
Conditions: response relative to ADIFAB2
Outline: (§1)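 Fluorescently labeled rat intestinal FABP variants were read at two emission wavelengths, near the unbound maximum (about 420 to 480 nm) and the FFA-bound maximum (about 495 to 580 nm). R = Fλ1/Fλ2 after subtracting probe-free intensity; ΔR = R+agent − R0, normalized to ADIFAB2 (rI-FABP-L72A).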

| Molecule | DR/DR LA |
| --- | --- |
| B1 | 0.15 |
| B2 | 1.01 and 1.045 |
| B3 | 0.78 |
| B4 | 0.81 |
| B5 | 1.51 |
| B6 | 0.87 |
| B7 | 1.37 |
| B8 | 1.38 |
| B9 | 2.015 |
| B10 | 0.35 |
| B11 | 0.44 and 0.380 |
| B12 | 1.46 |
| B13 | 1.818 |
| B14 | 1.24 |
| B15 | 0.12 |
| B16 | 1.23 |
| B17 | 0.45 |
| B18 | 1.45 |
| B19 | 0.74 |
| B20 | −0.19 |

Test: Probe fluorescence ratio response to oleic acid relative to ADIFAB2
Assay type: binding
Conditions: response relative to ADIFAB2
Outline: as §1

| Molecule | DR/DR OA |
| --- | --- |
| B1 | 0.10 |
| B2 | 0.93 and 0.947 |
| B3 | 0.71 |
| B4 | 0.88 |
| B5 | 1.41 |
| B6 | 0.91 |
| B7 | 1.26 |
| B8 | 1.23 |
| B9 | 1.982 |
| B10 | 0.52 |
| B11 | 0.35 and 0.294 |
| B12 | 1.41 |
| B13 | 1.717 |
| B14 | 1.25 |
| B15 | 0.11 |
| B16 | 1.25 |
| B17 | 0.46 |
| B18 | 1.36 |
| B19 | 0.68 |
| B20 | −0.24 |

Test: Probe fluorescence ratio response to palmitic acid relative to ADIFAB2
Assay type: binding
Conditions: response relative to ADIFAB2
Outline: as §1

| Molecule | DR/DR PA |
| --- | --- |
| B1 | 0.08 |
| B2 | 0.32 and 0.331 |
| B3 | 0.56 |
| B4 | 0.84 |
| B5 | 0.77 |
| B6 | 0.85 |
| B7 | 0.70 |
| B8 | 0.73 |
| B9 | 1.094 |
| B10 | 0.20 |
| B11 | 0.17 and 0.142 |
| B12 | 0.77 |
| B13 | 1.518 |
| B14 | 1.15 |
| B15 | 0.09 |
| B16 | 1.18 |
| B17 | 0.49 |
| B18 | 0.70 |
| B19 | 0.51 |
| B20 | −0.12 |

Test: Probe fluorescence ratio response to arachidonic acid relative to ADIFAB2
Assay type: binding
Conditions: arachidonic acid; response relative to ADIFAB2
Outline: as §1

| Molecule | DR/DR AA |
| --- | --- |
| B1 | 0.12 |
| B2 | 1.27 and 1.332 |
| B3 | 0.92 |
| B4 | 0.87 |
| B5 | 1.55 |
| B6 | 0.84 |
| B7 | −0.17 |
| B8 | 1.42 |
| B9 | 2.378 |
| B10 | 0.45 |
| B11 | 0.41 and 0.352 |
| B12 | 1.36 |
| B13 | 2.081 |
| B14 | 1.26 |
| B15 | 0.14 |
| B16 | 1.26 |
| B17 | 0.57 |
| B18 | 1.40 |
| B19 | 0.89 |
| B20 | −0.17 |

Test: Probe fluorescence ratio response to linolenic acid relative to ADIFAB2
Assay type: binding
Conditions: response relative to ADIFAB2
Outline: as §1

| Molecule | DR/DR LNA |
| --- | --- |
| B1 | 0.10 |
| B2 | 0.62 and 0.631 |
| B3 | 0.73 |
| B4 | 0.80 |
| B5 | 1.51 |
| B6 | 0.93 |
| B7 | 1.35 |
| B8 | 1.27 |
| B9 | 1.881 |
| B10 | 0.44 |
| B11 | 0.44 and 0.407 |
| B12 | 1.49 |
| B13 | 1.884 |
| B14 | 1.29 |
| B15 | 0.12 |
| B16 | 1.32 |
| B17 | 0.54 |
| B18 | 1.43 |
| B19 | 0.70 |
| B20 | −0.13 |
